From paper PMC3443293

How the values were obtained:
Experiment in all cases: AUC
[1] = molecular target: human nectin-3 ectodomain (D1-D3) (human) (UniProt Q9NQS3)
[2] = molecular target: human nectin-1 ectodomain (D1-D3) (human) (UniProt Q15223)
[3] = molecular target: mouse nectin-3 ectodomain (D1-D3 with part of the stalk) (mouse) (UniProt Q9JLB9)

human nectin-3 ectodomain (D1-D3), sequence (Q9NQS3 58-359): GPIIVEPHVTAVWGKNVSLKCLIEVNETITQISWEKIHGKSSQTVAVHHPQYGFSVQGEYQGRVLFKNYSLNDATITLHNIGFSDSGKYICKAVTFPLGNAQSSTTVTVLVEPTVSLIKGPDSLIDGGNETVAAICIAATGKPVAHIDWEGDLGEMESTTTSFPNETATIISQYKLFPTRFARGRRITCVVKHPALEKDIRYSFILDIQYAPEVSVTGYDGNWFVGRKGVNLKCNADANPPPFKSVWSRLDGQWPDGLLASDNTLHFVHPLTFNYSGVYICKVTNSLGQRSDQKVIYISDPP
mouse nectin-3 ectodomain (D1-D3 with part of the stalk), sequence (Q9JLB9 58-401): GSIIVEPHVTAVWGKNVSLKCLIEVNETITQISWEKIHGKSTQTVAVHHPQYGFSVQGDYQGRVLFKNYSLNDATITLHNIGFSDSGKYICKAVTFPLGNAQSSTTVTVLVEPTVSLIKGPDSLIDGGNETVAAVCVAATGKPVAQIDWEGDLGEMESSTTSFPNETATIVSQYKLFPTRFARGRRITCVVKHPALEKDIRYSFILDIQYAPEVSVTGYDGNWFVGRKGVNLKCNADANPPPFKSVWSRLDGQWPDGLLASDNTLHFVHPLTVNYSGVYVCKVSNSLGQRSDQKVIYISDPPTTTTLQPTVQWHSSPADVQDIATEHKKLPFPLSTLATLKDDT
human nectin-1 ectodomain (D1-D3) (human), sequence (Q15223 31-337): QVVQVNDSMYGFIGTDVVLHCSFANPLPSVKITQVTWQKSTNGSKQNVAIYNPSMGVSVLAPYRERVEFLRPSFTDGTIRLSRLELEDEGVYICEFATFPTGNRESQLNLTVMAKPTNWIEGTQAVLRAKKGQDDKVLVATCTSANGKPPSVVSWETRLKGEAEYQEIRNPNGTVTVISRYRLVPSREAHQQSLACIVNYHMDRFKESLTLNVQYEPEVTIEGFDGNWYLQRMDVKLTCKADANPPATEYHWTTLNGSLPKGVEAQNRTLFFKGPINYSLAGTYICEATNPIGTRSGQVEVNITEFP

“human nectin-3 ectodomain (D1-D3) (from UniProt Q9NQS3 58-359) (domain or fragment)” was tested, and the Kd [1] was 228 µM, the stoichiometry N [1] was 2 and the stoichiometry N [2] was 1.
With “mouse nectin-3 ectodomain (D1-D3 with part of the stalk) (from UniProt Q9JLB9 58-401) (domain or fragment)” the Kd [3] was 122 µM and the stoichiometry N [3] was 2.
